Changes are numbered by the printed parent chain. Names and notes keep the numbering of the source.
T1: Escherichia coli inclusion body-associated protein B (Escherichia coli, UniProt P0C058 1-142)
T1 construct: Small heat shock protein IbpB of Escherichia coli; also called IbpBEc; His-IbpBEc; source: purified with Ni-NTA agarose upon denaturation by 6 M urea
T1 sequence (looked up): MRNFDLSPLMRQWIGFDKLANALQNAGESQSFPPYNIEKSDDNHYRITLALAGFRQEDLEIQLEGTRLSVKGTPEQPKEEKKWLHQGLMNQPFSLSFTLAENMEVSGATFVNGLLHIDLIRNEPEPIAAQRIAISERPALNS

B1: Escherichia coli inclusion body-associated protein A, wild type (natural protein, UniProt P0C054 1-137, looked up)
chain: MRNFDLSPLYRSAIGFDRLFNHLENNQSQSNGGYPPYNVELVDENHYRIAIAVAGFAESELEITAQDNLLVVKGAHADEQKERTYLYQGIAERNFERKFQLAENIHVRGANLVNGLLYIDLERVIPEAKKPRRIEIN
notes: Small heat shock protein IbpA of Escherichia coli, expressed from pCA24N-ibpAEc; also called IbpAEc; IbpAEc-WT; source: E. coli BW25113ΔAB, overexpressed (0.5 mM IPTG), purified (anion exchange chromatography)
B2: Escherichia coli inclusion body-associated protein A, R93A mutant (natural protein, UniProt P0C054 1-137, looked up)
chain: B1 chain with R93A
notes: Small heat shock protein IbpA of Escherichia coli with R93A, made by site-directed mutagenesis of pCA24N-ibpAEc; also called IbpAEc-R93A; IbpA-R93A; source: E. coli BW25113ΔAB, overexpressed (0.5 mM IPTG), purified (anion exchange chromatography)

What was measured:
[1] = biological target: T1, Escherichia coli inclusion …; assay: co-sedimentation; sucrose density gradient centrifugation: IbpAEc (3 μM) and IbpBEc (7 μM) in buffer F incubated at room temperature for 30 min, 10% to 30% (w/v) sucrose gradient; SDS-PAGE with 6 M urea and CBB staining; conditions: both partners purified
[2] = biological target: the molecule itself; assay: sucrose density gradient centrifugation; purified IbpA (3 μM, dimeric units) alone in buffer F (50 mM Hepes-KOH pH 7.6, 0.1 M KCl, 5 mM DTT, 20 mM Mg-acetate) on a 10% to 30% (w/v) sucrose gradient, SW 41 Ti, 35,000 rpm, 4 °C, 80 min; fractions by SDS-PAGE with Western blot (anti-IbpA) or CBB staining; oligomeric state

Binder | binding result [1] | binding result [2]
B1 | binds | binds
B2 | binds | binds

— paper PMC10474464, “The mRNA binding-mediated self-regulatory function of small heat shock protein IbpA in γ-proteobacteria is conferred by a conserved arginine” (The Journal of Biological Chemistry, 2023)
